Data from article doi:10.1101/2023.03.09.531992.

Target: full-length, extra-membrane clientized (Thr1273Glu) S tail, biotinylated (BLI) (SARS-CoV-2)
Assay: BLI

B1: S. pombe αWD40 domain (N-terminal WD40 domain of α-COPI), wild type (domain or fragment)
chain: MEMLTKFESRSSRAKGVAFHPTQPWILTSLHNGRIQLWDYRMGTLLDRFDGHDGPVRGIAFHPTQPLFVSGGDDYKVNVWNYKSRKLLFSLCGHMDYVRVCTFHHEYPWILSCSDDQTIRIWNWQSRNCIAILTGHSHYVMCAAFHPSEDLIVSASLDQTVRVWDISGLRMKNAAPVSMSLEDQLAQAHNSISNDLFGSTDAIVKFVLEGHDRGVNWCAFHPTLPLILSAGDDRLVKLWRMTASKAWEVDTCRGHFNNVSCCLFHPHQELILSASEDKTIRVWDLNRRTAVQTFRRDNDRFWFITVHPKLNLFAAAHDSGVMVFKLE
- fold slower binding rate than the wild-type S tail: 2.4 fold
- fold tighter binding than the wild-type S tail: 11 fold
